Patent US5616475

Target: T1, TRC-1 (p21 SNF-1/JunB heteromultimer), SLB-I nuclear extract (Homo sapiens) (UniProt Q9NR55+P17275)
T1 sequence 1: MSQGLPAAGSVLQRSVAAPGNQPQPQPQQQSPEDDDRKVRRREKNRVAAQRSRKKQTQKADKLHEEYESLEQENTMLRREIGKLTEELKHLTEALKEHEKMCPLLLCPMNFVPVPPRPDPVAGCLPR
T1 sequence 2: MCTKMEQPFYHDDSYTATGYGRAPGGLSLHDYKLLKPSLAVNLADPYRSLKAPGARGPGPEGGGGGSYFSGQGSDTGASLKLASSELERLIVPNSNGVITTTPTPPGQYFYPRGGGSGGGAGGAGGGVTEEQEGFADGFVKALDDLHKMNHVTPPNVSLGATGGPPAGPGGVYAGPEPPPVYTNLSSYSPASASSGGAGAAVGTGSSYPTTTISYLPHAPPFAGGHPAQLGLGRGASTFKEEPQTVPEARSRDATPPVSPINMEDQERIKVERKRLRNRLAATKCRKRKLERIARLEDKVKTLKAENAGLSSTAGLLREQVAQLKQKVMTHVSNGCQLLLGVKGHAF
Experiment: competition
Settings: EMSA, site2 probe

Question: HTLV-1 LTR 21-bp repeat site2 (s2) was tested. Which binding signal (% competition at 12.5-fold excess) (on ice) did it give?
Answer: The binding signal (% competition at 12.5-fold excess) was 55.

Question: Which binding signal (fold excess for 55% competition) (nearly 50-fold) does the source give for HTLV-1 LTR 21-bp repeat site3 (s3) here?
Answer: The binding signal (fold excess for 55% competition) was 50.

Question: With HTLV-1 LTR 21-bp repeat site1 (s1) as the substance, how does the binding signal (fold excess for 55% competition) read?
Answer: The binding signal (fold excess for 55% competition) was 100.
